The values that follow are results of earlier work, collected in publication PMC5419744.

This data set concerns the target DNA polymerase III subunit tau (Escherichia coli) (UniProt P06710).

pKd: −log10 of the molar value.

Chain of UniProt P06710 (P06710 2-643): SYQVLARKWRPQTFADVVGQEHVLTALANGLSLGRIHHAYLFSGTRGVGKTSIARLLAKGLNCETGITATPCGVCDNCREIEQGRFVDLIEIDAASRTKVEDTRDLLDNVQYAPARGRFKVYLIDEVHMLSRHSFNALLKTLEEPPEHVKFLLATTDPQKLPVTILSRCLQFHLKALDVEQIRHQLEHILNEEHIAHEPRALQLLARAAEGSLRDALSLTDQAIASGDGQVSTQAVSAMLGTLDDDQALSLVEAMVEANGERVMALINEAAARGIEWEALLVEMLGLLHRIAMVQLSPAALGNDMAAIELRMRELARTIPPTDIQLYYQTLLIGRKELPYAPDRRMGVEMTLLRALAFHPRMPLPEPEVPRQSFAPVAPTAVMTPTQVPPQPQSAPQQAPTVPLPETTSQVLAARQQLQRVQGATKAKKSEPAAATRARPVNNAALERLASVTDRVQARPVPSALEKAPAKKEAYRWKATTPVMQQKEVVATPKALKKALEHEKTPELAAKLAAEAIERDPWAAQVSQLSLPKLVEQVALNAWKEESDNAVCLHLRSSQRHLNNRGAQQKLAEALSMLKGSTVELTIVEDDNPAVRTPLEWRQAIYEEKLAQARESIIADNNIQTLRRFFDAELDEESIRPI

For “DNA polymerase III subunit alpha (from UniProt P10443)”, the pKd was 9.52.
